Positions count from the first letter of the chain named. Read-outs that look alike come from different tables or passages of the source.
What was measured:
[1] = target: Human TMPRSS2 expressed on cells (human) (UniProt O15393); assay: flow cytometry, COS7 transfectant; Q1 23.3
[2] = target: Cynomolgus monkey TMPRSS2 expressed on cells (cynomolgus monkey); assay: flow cytometry, Daudi transfectant
[3] = target: Human TMPRSS2 expressed on cells (human) (UniProt O15393); assay: flow cytometry, Daudi transfectant
[4] = target: T1, Mouse TMPRSS2 expressed on cells (mouse, UniProt Q9JIQ8 1-490); assay: flow cytometry, Daudi transfectant
[5] = test system: pseudo-typed virus having S protein of SARS-COV-2 (WT) derived from Wuhan; assay type: cell-based
TMPRSS-11D = target: T2, TMPRSS-11D (human, UniProt O60235); assay: ELISA, Strep-tagged protein on streptavidin plate
T2 sequence (single chain, looked up): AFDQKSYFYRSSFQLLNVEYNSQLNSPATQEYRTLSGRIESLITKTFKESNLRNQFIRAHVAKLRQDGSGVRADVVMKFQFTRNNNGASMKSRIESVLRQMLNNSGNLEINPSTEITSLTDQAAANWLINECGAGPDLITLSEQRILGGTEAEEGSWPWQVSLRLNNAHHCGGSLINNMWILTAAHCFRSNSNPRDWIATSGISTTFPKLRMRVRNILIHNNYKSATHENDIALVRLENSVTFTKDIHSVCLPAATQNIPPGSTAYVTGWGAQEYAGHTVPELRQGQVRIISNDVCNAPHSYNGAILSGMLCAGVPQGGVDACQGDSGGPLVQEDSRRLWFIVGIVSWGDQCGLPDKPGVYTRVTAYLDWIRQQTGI

TMPRSS-11E = target: T3, TMPRSS-11E (human, UniProt Q9UL52); assay: ELISA, Strep-tagged protein on streptavidin plate
T3 sequence (single chain, looked up): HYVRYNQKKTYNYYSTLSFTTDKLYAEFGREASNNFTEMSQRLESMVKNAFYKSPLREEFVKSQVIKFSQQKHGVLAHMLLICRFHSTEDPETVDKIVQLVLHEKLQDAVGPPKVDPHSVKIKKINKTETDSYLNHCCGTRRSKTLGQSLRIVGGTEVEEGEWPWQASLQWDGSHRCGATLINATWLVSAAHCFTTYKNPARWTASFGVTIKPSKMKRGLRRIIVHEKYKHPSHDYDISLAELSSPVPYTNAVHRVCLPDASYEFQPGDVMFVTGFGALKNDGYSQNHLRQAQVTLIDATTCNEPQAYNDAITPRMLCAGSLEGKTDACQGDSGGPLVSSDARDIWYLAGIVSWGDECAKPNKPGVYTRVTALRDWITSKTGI

TMPRSS-13 = target: T4, TMPRSS-13 (human, UniProt Q9BYE2); assay: ELISA, Strep-tagged protein on streptavidin plate
T4 sequence (single chain, looked up): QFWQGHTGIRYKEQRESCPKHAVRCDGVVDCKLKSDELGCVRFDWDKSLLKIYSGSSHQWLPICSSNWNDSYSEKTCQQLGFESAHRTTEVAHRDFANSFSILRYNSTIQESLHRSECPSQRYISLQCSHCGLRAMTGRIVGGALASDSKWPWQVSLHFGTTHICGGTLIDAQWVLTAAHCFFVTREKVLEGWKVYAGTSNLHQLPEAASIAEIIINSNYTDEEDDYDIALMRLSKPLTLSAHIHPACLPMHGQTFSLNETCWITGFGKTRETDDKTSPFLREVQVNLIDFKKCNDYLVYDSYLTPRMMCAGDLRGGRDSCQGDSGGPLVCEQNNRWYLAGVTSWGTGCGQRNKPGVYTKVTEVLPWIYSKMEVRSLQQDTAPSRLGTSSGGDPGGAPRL

TMPRSS-11F = TMPRSS-11F (human, UniProt Q6ZWK6); assay: ELISA, Strep-tagged protein on streptavidin plate
[6] = target: T5, Human TMPRSS2 expressed on cells (human, UniProt O15393 1-492); assay: cell-based or functional assay
F321A = target: T6, F321A (human, UniProt O15393); assay: flow cytometry, COS7 transfectant
T6 construct: expressed on COS7 cells with GFP via IRES; also called TMPRSS2 alanine substitution F321A; RQSFMA

[7] = target: T5, Human TMPRSS2 expressed on cells; assay: flow cytometry, COS7 transfectant
[8] = target: T5, Human TMPRSS2 expressed on cells; assay: cell-based or functional assay; remark: listed apart in the source
[9] = target: T5, Human TMPRSS2 expressed on cells; assay: flow cytometry, Daudi transfectant
[10] = target: T1, Mouse TMPRSS2 expressed on cells; assay: flow cytometry, Daudi transfectant; remark: listed apart in the source
[11] = target: T7, Human TMPRSS2 recombinant protein, extracellular region (N-terminal His tag, C-terminal Strep-tag II) (human, UniProt O15393 106-492); assay: SPR (BIAcore), captured mAb, soluble human TMPRSS2 extracellular region
T7 construct: also called Human TMPRSS2 recombinant proteins; extracellular region of human TMPRSS2

[12] = target: T7, Human TMPRSS2 recombinant protein, …; assay: SPR (BIAcore); rounded repeat of Table 1
[13] = target: T8, amino acid sequence set forth in SEQ ID NO: 85 ([…]) (Homo sapiens, UniProt O15393); assay: Epitope mapping by peptide array; assay type: binding; conditions: 20-meric peptide array, FIGS. 5A to 5B
T8 construct: purchased JPT Peptide Technologies GmbH; host or cells: synthetic peptides on glass slide

mouse TMPRSS2 = target: T9, mouse TMPRSS2 (Mus musculus, UniProt Q9JIQ8); assay: FACS cross-reactivity to mouse TMPRSS2; assay type: binding; conditions: FIGS. 10C and 10D
T9 construct: expressed in transfected cells; host or cells: Daudi

[14] = test system: human TMPRSS family proteins; assay: Binding properties to TMPRSS family; conditions: FIG. 9
Procedure: The reactivity of anti-TMPRSS2 mAbs to extracellular regions of human TMPRSS family proteins was analyzed by ELISA method. To a streptavidin-coated 96-well plate (Thermo Scientific, 436014), 100 μl each of 78 nM Strep-tagged recombinant proteins in PBS was captured at room temperature for 2 hours and washed 5 times with PBST (0.1% Tween 20/PBS). Anti-TMPRSS2 mAbs (10 μg/mL), mouse IgG (Equitech-Bio, SLM66) or Ni-NTA-HRP (KPL, 24-01-01) as controls, diluted to 0.2% BSA in PBST was added thereto to incubate for 2 hours. After washing with PBST, the bound IgG was detected with 100 μl horseradish peroxidase Goat anti-mouse IgG antibody (BioLegend, Inc.) diluted to 1:15,000 in PBST at room temperature for 1 hour and washed with PBST. 100 μl TMB substrate solution (SeraCare Life Sciences, Inc. 5120-0077) was added to the well and allowed to color at room temperature for a few minutes. The reaction was stopped with 100 μl 2M H2SO4. The optical density (OD) was read at 450 nm while referring to OD with a microplate reader (ARVO ×3, PerkinElmer, Inc.).

human TMPRSS2 [15] = target: T10, human TMPRSS2 (Homo sapiens, UniProt O15393); assay: Competitive inhibition between anti-TMPRSS2 mAbs (flow cytometry); assay type: binding; conditions: FIG. 3B
Target sequence in this assay (O15393 whole entry): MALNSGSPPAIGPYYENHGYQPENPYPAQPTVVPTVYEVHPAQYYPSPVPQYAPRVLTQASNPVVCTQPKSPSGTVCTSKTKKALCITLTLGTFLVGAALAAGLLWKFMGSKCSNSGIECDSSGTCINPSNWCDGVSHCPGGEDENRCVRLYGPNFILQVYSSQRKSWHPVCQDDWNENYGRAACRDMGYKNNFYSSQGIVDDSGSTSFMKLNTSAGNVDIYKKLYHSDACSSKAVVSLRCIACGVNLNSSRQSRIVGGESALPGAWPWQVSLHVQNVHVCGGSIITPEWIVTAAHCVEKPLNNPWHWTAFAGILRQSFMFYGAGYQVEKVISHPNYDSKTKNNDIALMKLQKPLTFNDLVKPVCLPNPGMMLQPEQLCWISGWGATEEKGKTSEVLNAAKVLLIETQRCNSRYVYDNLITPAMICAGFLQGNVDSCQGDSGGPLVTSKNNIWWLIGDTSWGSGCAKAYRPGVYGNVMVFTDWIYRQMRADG

human TMPRSS2 [16] = target: T10, human TMPRSS2; assay: BIACore binding assay of anti-TMPRSS2 antibodies; conditions: Table 1, mouse mAbs, 25° C.
Target sequence in this assay (O15393 106-492 limits assumed): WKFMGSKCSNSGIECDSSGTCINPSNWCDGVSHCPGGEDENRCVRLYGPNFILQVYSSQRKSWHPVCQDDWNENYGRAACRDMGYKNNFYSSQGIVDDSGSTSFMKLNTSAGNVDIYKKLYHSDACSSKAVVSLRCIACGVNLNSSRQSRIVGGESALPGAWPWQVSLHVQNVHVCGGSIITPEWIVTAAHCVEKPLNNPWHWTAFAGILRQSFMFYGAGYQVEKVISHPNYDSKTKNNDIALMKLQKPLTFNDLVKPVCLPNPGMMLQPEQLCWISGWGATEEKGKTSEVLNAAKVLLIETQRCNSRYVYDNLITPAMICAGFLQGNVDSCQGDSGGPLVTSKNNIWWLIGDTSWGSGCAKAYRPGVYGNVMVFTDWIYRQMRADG

[17] = test system: TMPRSS2 of non-human animal species; assay type: binding; conditions: Table 3; species whose TMPRSS2 is bound
[18] = target: T1, Mouse TMPRSS2 expressed on cells; assay: flow cytometry, Daudi transfectant; remark: listed apart in the source

T1 sequence (Q9JIQ8 whole entry): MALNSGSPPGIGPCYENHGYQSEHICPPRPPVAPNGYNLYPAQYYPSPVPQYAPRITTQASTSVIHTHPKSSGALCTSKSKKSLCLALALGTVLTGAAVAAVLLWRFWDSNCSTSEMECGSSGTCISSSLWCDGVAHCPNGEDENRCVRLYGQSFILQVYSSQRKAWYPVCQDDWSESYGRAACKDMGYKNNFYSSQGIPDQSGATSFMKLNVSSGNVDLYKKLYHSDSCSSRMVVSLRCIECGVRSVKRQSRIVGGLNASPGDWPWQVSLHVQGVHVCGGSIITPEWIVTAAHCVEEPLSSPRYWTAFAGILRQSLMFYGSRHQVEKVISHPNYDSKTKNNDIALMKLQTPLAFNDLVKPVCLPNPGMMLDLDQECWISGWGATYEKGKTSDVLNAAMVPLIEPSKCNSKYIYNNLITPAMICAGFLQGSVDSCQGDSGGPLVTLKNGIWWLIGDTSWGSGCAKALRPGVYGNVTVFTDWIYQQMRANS
T5 sequence (O15393 whole entry): as the sequence (O15393 whole entry) above
T7 sequence (O15393 other isoform, or with tags, fused parts or gaps limits assumed): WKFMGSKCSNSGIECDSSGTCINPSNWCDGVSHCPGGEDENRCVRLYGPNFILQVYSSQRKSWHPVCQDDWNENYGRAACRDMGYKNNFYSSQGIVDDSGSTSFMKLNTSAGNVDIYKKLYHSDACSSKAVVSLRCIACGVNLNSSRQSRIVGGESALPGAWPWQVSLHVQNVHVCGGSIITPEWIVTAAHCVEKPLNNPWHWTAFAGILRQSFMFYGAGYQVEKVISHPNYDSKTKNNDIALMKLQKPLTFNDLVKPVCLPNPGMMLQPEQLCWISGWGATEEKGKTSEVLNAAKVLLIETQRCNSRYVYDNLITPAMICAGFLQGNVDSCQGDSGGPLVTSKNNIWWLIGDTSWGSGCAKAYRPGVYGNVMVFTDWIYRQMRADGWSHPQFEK
T9 sequence (Q9JIQ8 whole entry): as the sequence (Q9JIQ8 whole entry) above
Human TMPRSS2 expressed on cells (human), sequence (O15393 whole entry): as the sequence (O15393 whole entry) above
T6 sequence (O15393 whole entry F321A): as the sequence (O15393 whole entry) above, with F321A counted along it
TMPRSS-11F, sequence (Q6ZWK6 54-438 limits assumed): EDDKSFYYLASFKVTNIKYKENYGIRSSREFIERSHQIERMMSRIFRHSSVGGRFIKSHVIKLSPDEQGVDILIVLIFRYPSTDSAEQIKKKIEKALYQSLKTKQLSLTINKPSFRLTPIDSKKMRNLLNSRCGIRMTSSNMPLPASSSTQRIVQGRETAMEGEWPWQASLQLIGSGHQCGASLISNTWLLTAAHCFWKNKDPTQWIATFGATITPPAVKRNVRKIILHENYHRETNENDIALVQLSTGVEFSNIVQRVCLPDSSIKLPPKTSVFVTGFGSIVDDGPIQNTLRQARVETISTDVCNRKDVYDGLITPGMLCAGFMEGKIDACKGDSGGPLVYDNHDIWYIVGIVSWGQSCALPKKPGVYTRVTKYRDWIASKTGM

For mIgG (antibody), the Q2 (percent of cells GFP+ and stained) [1] was 0.015, the Q2 (percent of cells GFP+ and stained) [2] was 1.51 and the Q2 (percent of cells GFP+ and stained) [3] was 0.12. It also gave a Q2 (percent of cells GFP+ and stained) [4] of 0.011.

With `N=C(N)c1ccc2cc(OC(=O)c3ccc(N=C(N)N)cc3)ccc2c1` [Nafamostat, nafamostat] the “infection inhibiting effect on WT-type virus” value [5] was “exhibited infection inhibiting effects”.

B1: 1864_10 antibody (antibody, V domains shown)
VH: QVQLQQSGPALVKPGASLKISCEASGYTFTYYSINWVKQRPGQGLEWIGWIFPGSGSTYYNEKFKGKATLTIDKSSSTAYMLLSSLTSEDSAVYFCARSDYGSAYGYFDVWGTGTTVTVSS
VL: DIVLTQSPASLAVSLGQRATISCRASKSVSTSGYSYMHWYQQKPGQPPKLLIYLASNLESGVPARFSGSGSGTDFTLNIHPVEEEDAATYYCQHSRDLPLTFGAGTKLELK
B1: no binding (tested: 10 µg/mL) (TMPRSS-11D); no binding (tested: 10 µg/mL) (TMPRSS-11E); no binding (tested: 10 µg/mL) (TMPRSS-13). The binding result (TMPRSS-11F) was “no binding (tested: 10 µg/mL)”, the “Activity: Calu-3 Inhibiton” value [6] was 67.6 and the “Q2 (percent of cells GFP+ and stained)” value (F321A) was 7.85. For the same molecule, the “Q2 (percent of cells GFP+ and stained)” value [7] was 10.5, the “IC90, First run; live SARS-CoV-2 infection of Calu-3 cells” value [8] was 0.11 µg/mL and the “IC90, Second run; live SARS-CoV-2 infection of Calu-3 cells” value [8] was 0.16 µg/mL. The “Q2 (percent of cells GFP+ and stained)” value [9] was 100, the “Q2 (percent of cells GFP+ and stained)” value [10] was 98.1 and the Kd [11] was 5.14 nM. For the same molecule, the koff [11] was 0.00289 s⁻¹, the kon [11] was 563000 M⁻¹ s⁻¹ and the Kd [12] was 5.1 nM. The Q2 (percent of cells GFP+ and stained) [2] was 2.27.

B2: 2020_12: mouse anti-human TMPRSS2 monoclonal antibody, IgG2c κ; VH SEQ ID NO: 25, VL SEQ ID NO: 26 (antibody, V domains shown)
VH: QVQLQQPGAELAKPGASVKLSCKASGYTFTSYWMHWVKQRPGQGLEWIGLIPPNSGSSNYNEKFKSKATLTVDKSSRTAYMQLSSLTSEDSAVYYCARWDYGSSYGYFDVWGTGTTVTVSS
VL: B1 VL with K27E, A64V, D97E, L100P
modifications: mouse IgG2c kappa constant regions; 2020_12 VH; 2020_12 VL
With B2 the “binding to peptide of SEQ ID NO: 85” value [13] was “particularly bound”, the “cross-reactivity to mouse TMPRSS2” value (mouse TMPRSS2) was “exhibited the cross-reactivity” and the “binding properties to the TMPRSS family” value [14] was “bound specifically only to TMPRSS2”. The “competition with 2228_15 antibody for binding to human TMPRSS2” value (human TMPRSS2 [15]) was “competed”, the “ka” value (human TMPRSS2 [16]) was 654000 M⁻¹ s⁻¹ and the “kd” value (human TMPRSS2 [16]) was 0.001759 s⁻¹. The Cross-reactivity [17] was “Mouse”.

B3: 1864_10: mouse anti-human TMPRSS2 monoclonal antibody, IgG2b κ; VH SEQ ID NO: 17, VL SEQ ID NO: 18 (antibody, V domains shown)
VH: B1 VH
VL: B1 VL
modifications: mouse IgG2b kappa constant regions; 1864_10 VH; 1864_10 VL
For B3, the “binding to peptide of SEQ ID NO: 85” value [13] was “particularly bound”, the “cross-reactivity to mouse TMPRSS2” value (mouse TMPRSS2) was “exhibited the cross-reactivity” and the “binding properties to the TMPRSS family” value [14] was “bound specifically only to TMPRSS2”. The “competition with 2228_15 antibody for binding to human TMPRSS2” value (human TMPRSS2 [15]) was “competed”, the “ka” value (human TMPRSS2 [16]) was 563000 M⁻¹ s⁻¹ and the “kd” value (human TMPRSS2 [16]) was 0.002894 s⁻¹. The Cross-reactivity [17] was “Mouse”.

B4: 1831_15 antibody (antibody, V domains shown)
VH: QVQLQQPGAELVKPGASVKLSCKASGYSFTTYWMHWVRQRPGQGLEWIGIIHPNSGTTNYNEKFKSKASLTVDKSSSTAYMQLSSLTSEDSAVYYCARLLWDYFDYWGQGTTLTVSS
VL: DIVMSQSPSSLAVSAGEKVTMSCKSSQSLLNSRTRKNFLAWYQQKPGQSPKLLIYWASTRESGVPDRFTGSGSGTDFTLTISSVQAEDLAVYYCKQSYNLYTFGGGTKLEIK
For B4, the “Activity: Calu-3 Inhibiton” value [6] was 44.8, the binding result [18] was “no binding (tested: 1 µg/mL)” and the Kd [11] was 0.418 nM. For the same molecule, the koff [11] was 0.000236 s⁻¹, the kon [11] was 563000 M⁻¹ s⁻¹ and the Kd [12] was 0.42 nM.

B5: 2114_16 antibody (antibody, V domains shown)
VH: EVQLQQSGPELVKPGASVKISCKASGYTFTDYYMNWVKRRHGKSLEWIGNINPNNGGTSYNQKFKGKATLTVDKSSSTAYMELRSLTSEDSVVYYCAREGDLFPFAYWGQGTLVTVSA
VL: QAVVTQESALTTSPGETVTLTCRSSIGTVTTSNFANWVQEKPDHLFTGLIGASNNRAPGVPARFSGSLIGDKAALTITGAQTEDEAIYFCALWFSNHWVFGGGTKLTVL
notes: also called 2114 antibody
With B5 the “Activity: Calu-3 Inhibiton” value [6] was 47.6, the binding result [18] was “no binding (tested: 1 µg/mL)” and the “IC90, First run; live SARS-CoV-2 infection of Calu-3 cells” value [8] was 1.5 µg/mL. For the same molecule, the “IC90, Second run; live SARS-CoV-2 infection of Calu-3 cells” value [8] was 3.4 µg/mL, the Kd [11] was 1.04 nM and the koff [11] was 0.000591 s⁻¹. The kon [11] was 570000 M⁻¹ s⁻¹ and the Kd [12] was 1 nM.

Reference: US20250277059A1, “ANTIBODY USED TO TREAT CORONAVIRUS INFECTION” (priority 2022, published 2025)
